One molecule from article PMC10516654, “Structural and functional characterization of MrpR, the master repressor of the Bacillus subtilis prophage SPβ” can be followed below.

Holding throughout (experiment): ITC; ITC: 20 mM HEPES-Na pH 7.5, 200 mM NaCl, 20 mM KCl, 25 C, 20 uM DNA in cell, protein in syringe, one set of sites; EMSA: same buffer plus 50 ug/ml herring sperm DNA, 50 nM DNA, RT 15 min, 6% native PAGE 0.5x TBE
Holding throughout (conditions): protein: recombinant; tags: C-terminal His6; blunt
A general note: ITC needs no label: the signal is the heat of the interaction.

For one data set, the target named is T1, MrpR Y304F (Bacillus subtilis prophage SPβ, UniProt O34558 1-325, Y304F).
T1 sequence: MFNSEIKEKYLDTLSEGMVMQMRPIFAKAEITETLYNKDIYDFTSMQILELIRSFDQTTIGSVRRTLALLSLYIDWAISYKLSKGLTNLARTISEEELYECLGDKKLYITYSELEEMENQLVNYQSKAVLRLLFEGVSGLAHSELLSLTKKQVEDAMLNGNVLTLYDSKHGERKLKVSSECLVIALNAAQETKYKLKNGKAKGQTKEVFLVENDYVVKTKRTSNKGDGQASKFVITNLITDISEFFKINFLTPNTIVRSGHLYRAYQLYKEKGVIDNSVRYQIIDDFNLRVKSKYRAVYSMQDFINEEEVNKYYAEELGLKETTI

A further data set addresses T2, MrpR G136E (Bacillus subtilis prophage SPβ c2, UniProt O34558 1-325, G136E).
T2 sequence: T1 sequence with G136E, F304Y

The target of a further data set is T3, MrpR K169A (Bacillus subtilis prophage SPβ, UniProt O34558 1-325, K169A).
T3 sequence: T1 sequence with K169A, F304Y

Substitutions are numbered along the chain they refer to.

B1: aimR promoter ITC duplex (LC292/LC293) (dsDNA)
DNA 1: GAATTTTAAAGAGATTACAAATACAAAAAATATGTATAAAATAATTGACTCGTAATG
DNA 2: CATTACGAGTCAATTATTTTATACATATTTTTTGTATTTGTAATCTCTTTAAAATTC
Regarding B1, the Kd came out at 1340 ± 500 nM with MrpR Y304F, 1690 ± 690 nM with MrpR G136E and 346 ± 150 nM with MrpR K169A.

What is called Kd is the concentration at which binding is half-saturated.
